Changes are numbered by the printed parent chain. Numbers in names are those of the source.
B1: E81H (designed binder)
chain: MTLQELLREEALRRAEAEAFRYALELLAEKFPEQKEYLLDLAEEIESQIRSLSGVDVEDVRKFLDKEWAWVKELLAEHPAHLAEVEAARAARLAELRAEVEAKVAA
B2: L6N (designed binder)
chain: B1 chain with L6N, H81E
B3: R92E (designed binder)
chain: B1 chain with H81E, R92E
B4: E36N (designed binder)
chain: B1 chain with E36N, H81E
B5: S47M (designed binder)
chain: B1 chain with S47M, H81E
B6: A28N (designed binder)
chain: B1 chain with A28N, H81E
B7: R8Q (designed binder)
chain: B1 chain with R8Q, H81E
B8: E9L (designed binder)
chain: B1 chain with E9L, H81E
B9: A94C (designed binder)
chain: B1 chain with H81E, A94C
B10: V55L (designed binder)
chain: B1 chain with V55L, H81E
B11: M1R (designed binder)
chain: B1 chain with M1R, H81E
B12: E46P (designed binder)
chain: B1 chain with E46P, H81E
B13: A94W (designed binder)
chain: B1 chain with H81E, A94W
B14: A15V (designed binder)
chain: B1 chain with A15V, H81E
B15: E33D (designed binder)
chain: B1 chain with E33D, H81E
B16: T2F (designed binder)
chain: B1 chain with T2F, H81E
B17: Q48W (designed binder)
chain: B1 chain with Q48W, H81E
B18: L26W (designed binder)
chain: B1 chain with L26W, H81E
B19: E36P (designed binder)
chain: B1 chain with E36P, H81E
B20: L12N (designed binder)
chain: B1 chain with L12N, H81E
B21: T2D (designed binder)
chain: B1 chain with T2D, H81E
B22: R8P (designed binder)
chain: B1 chain with R8P, H81E
B23: E36G (designed binder)
chain: B1 chain with E36G, H81E
B24: K103H (designed binder)
chain: B1 chain with H81E, K103H
B25: A83K (designed binder)
chain: B1 chain with H81E, A83K
B26: K103F (designed binder)
chain: B1 chain with H81E, K103F
B27: A42Q (designed binder)
chain: B1 chain with A42Q, H81E
B28: L24R (designed binder)
chain: B1 chain with L24R, H81E
B29: Y22M (designed binder)
chain: B1 chain with Y22M, H81E
B30: A105M (designed binder)
chain: B1 chain with H81E, A105M
B31: E67V (designed binder)
chain: B1 chain with E67V, H81E
B32: V57H (designed binder)
chain: B1 chain with V57H, H81E
B33: A106R (designed binder)
chain: B1 chain with H81E, A106R
B34: L3M (designed binder)
chain: B1 chain with L3M, H81E
B35: H78P (designed binder)
chain: B1 chain with H78P, H81E
B36: E81W (designed binder)
chain: B1 chain with H81W
B37: S53I (designed binder)
chain: B1 chain with S53I, H81E
B38: A87K (designed binder)
chain: B1 chain with H81E, A87K
B39: V71E (designed binder)
chain: B1 chain with V71E, H81E
B40: W68P (designed binder)
chain: B1 chain with W68P, H81E
B41: E16P (designed binder)
chain: B1 chain with E16P, H81E
B42: E18H (designed binder)
chain: B1 chain with E18H, H81E
B43: L38P (designed binder)
chain: B1 chain with L38P, H81E
B44: G54A (designed binder)
chain: B1 chain with G54A, H81E
B45: A42S (designed binder)
chain: B1 chain with A42S, H81E
B46: A11H (designed binder)
chain: B1 chain with A11H, H81E
B47: E101K (designed binder)
chain: B1 chain with H81E, E101K
B48: A105D (designed binder)
chain: B1 chain with H81E, A105D
B49: E5T (designed binder)
chain: B1 chain with E5T, H81E
B50: D59T (designed binder)
chain: B1 chain with D59T, H81E
B51: A87S (designed binder)
chain: B1 chain with H81E, A87S
B52: F63R (designed binder)
chain: B1 chain with F63R, H81E
B53: G54P (designed binder)
chain: B1 chain with G54P, H81E
B54: A94Y (designed binder)
chain: B1 chain with H81E, A94Y
B55: K66T (designed binder)
chain: B1 chain with K66T, H81E

Target: T1, TNFR1 (Homo sapiens, UniProt P19438)
T1 chain: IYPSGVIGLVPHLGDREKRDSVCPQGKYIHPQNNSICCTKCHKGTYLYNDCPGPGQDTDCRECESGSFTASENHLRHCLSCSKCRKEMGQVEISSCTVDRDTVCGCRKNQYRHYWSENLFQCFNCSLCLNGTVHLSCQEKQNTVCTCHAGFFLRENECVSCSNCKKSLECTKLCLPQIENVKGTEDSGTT
Assay: yeast display SC50

Row | Binder | apparent Kd (screen) [nM]
1 | B1 | 0.446
2 | B2 | 22.2
3 | B3 | 1.05
4 | B4 | 1.27
5 | B5 | 0.49
6 | B6 | 12.5
7 | B7 | 0.653
8 | B8 | 0.718
9 | B9 | 0.718
10 | B10 | 0.653
11 | B11 | 0.593
12 | B12 | 0.49
13 | B13 | 0.539
14 | B14 | 0.653
15 | B15 | 0.49
16 | B16 | 0.539
17 | B17 | 29.5
18 | B18 | 0.405
19 | B19 | 0.49
20 | B20 | 0.446
21 | B21 | 1.54
22 | B22 | 10.4
23 | B23 | 0.718
24 | B24 | 0.49
25 | B25 | 0.539
26 | B26 | 0.869
27 | B27 | 2.05
28 | B28 | 7.78

Row | Binder | apparent Kd (screen) [nM]
29 | B29 | 0.653
30 | B30 | 0.653
31 | B31 | 20.2
32 | B32 | 0.593
33 | B33 | 0.539
34 | B34 | 2.73
35 | B35 | 1.69
36 | B36 | 0.539
37 | B37 | 2.25
38 | B38 | 0.49
39 | B39 | 0.869
40 | B40 | 7.78
41 | B41 | 9.41
42 | B42 | 0.49
43 | B43 | 22.2
44 | B44 | 1.4
45 | B45 | 0.539
46 | B46 | 0.718
47 | B47 | 0.653
48 | B48 | 0.718
49 | B49 | 0.446
50 | B50 | 0.446
51 | B51 | 0.653
52 | B52 | 9.41
53 | B53 | 12.5
54 | B54 | 0.593
55 | B55 | 0.956
